Source: patent publication US20070117924A1, “Biologically active material conjugated with biocompatible polymer with 1:1 complex, preparation method thereof and pharmaceutical composition comprising the same” (priority 2003, published 2007)

Key:
[1] = Half-life of mPEG-Hz-PTH in rats (cAMP in plasma); conditions: male rats, 100 ug/kg intravenous; FIG. 20
[2] = test system: UMR-10^6 cell line; assay: In vitro biological activity of mPEG-PTH conjugate: c-AMP synthesized in UMR-10^6 cell line; type: cell-based; conditions: concentration of 10-8 mole, FIG. 19
[3] = test system: White Blood Cell (WBC) count; assay: White blood cell (WBC) count of PEG-G-CSF-treated rats; type: in vivo, Sprague-Dawley rats; conditions: 100 ug/kg into tail vein, blood 0-96 hrs, FIG. 9
[4] = Half life of PEG-G-CSF conjugate in rats (serum activity by cell XTT assay); conditions: 100 ug/kg intravenous, FIG. 8

Row | Molecule | detection after administration (not detected) [1] | activity retained, % of unreacted PTH (c-AMP synthesized) [2] [%] | time after administration at which detected [1] [h] | WBC counts compared with native G-CSF and Neulasta [3] | half-life compared to native G-CSF [4]
1 | unreacted PTH [reference compound] | not detected after 15 mins |  |  |  | 
2 | mPEG(5000)-Hz-PTH | not detected after 15 mins | 40 |  |  | 
3 | mPEG(20000)-Hz-PTH |  | 20 | 2 |  | 
4 | mPEG(12000)-Hz-PTH |  | 30 | 1 |  | 
5 | mPEG(20000)-Hz-G-CSF (conjugate, UniProt P09919 31-207, looked up, mPEG 20 kDa via hydrazine linker) Granulocyte …: TPLGPASSLPQSFLLKCLEQVRKIQGDGAALQEKLVSECATYKLCHPEELVLLGHSLGIPWAPLSSCPSQALQLAGCLSQLHSGLFLYQGLLQALEGISPELGPTLDTLQLDVADFATTIWQQMEELGMAPALQPTQGAMPAFASAFQRRAGGVLVASHLQSFLEVSYRVLRHLAQP |  |  |  | higher WBC counts than both native G-CSF and Neulasta™ | much longer half-life compared to native G-CSF
